The RNAGym collection of RNA variant scans (doi:10.1093/nar/gkz1192)

B1: CPEB3 Ribozyme (parent)
chain: UAACAGGGGGCCACAGCAGAAGCGUUCACGUCGCAGCCCCUGUCAGAUUCUGGUGAAUCUGCGAAUUCUGCUGUAUAUCUC

Variants of: B1
Assay: self-cleavage, relative activity (ratio to wild type); higher = more cleavage; in vitro, sequencing
Outline: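 After error-prone PCR and barcoding, CPEB3 ribozyme mutant libraries were transcribed with T7 RNA polymerase at 37°C for 5 hours, then given 15 min with DNase I before an EDTA stop, and they cleaved during both steps. Reverse transcription with template switching preceded Illumina sequencing. Relative activity divides a variant's cleaved/total read fraction by the unmutated ribozyme's. At least 5 reads were required per variant, and three batches were averaged.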

Question: For CAACAGGGGGCCACAGCAGAAGCGUUCACGUCGAAGCCCCUGUCAGAUUCUGGUGAAUCUGCGAAUUCUGCUGUAUAUCUC [U1C C34A], which self-cleavage is on record?
Answer: 0.12

Question: For CAACAGGGGGCCACAGCAGAAGCGUUCACGUCGUAGCCCCUGUCAGAUUCUGGUGAAUCUGCGAAUUCUGCUGUAUAUCUC [U1C C34U], which self-cleavage is on record?
Answer: 0.24

Question: With CAACAGGGGGCCACAGCAGAAGCGUUCACGUCGCAGCCCCUGUCAGAUUCUGGUGAAUCUGCGAAUUCUUCUGUAUAUCUC [U1C G70U] as the variant, how does the self-cleavage read?
Answer: 0.32

Question: Which self-cleavage does the source give for CAACAGGGGGCCACAGCAGAAGCGUUCACGUCGCAGCCCCUGUCAGAUUCUGGUGAAUCUGCGAAUUCUCCUGUAUAUCUC [U1C G70C] here?
Answer: 0.35

Question: For CAACAGGGGGCCACAGCAGAAGCGUUCACGUCGCAGCCCCUGUCAGACUCUGGUGAAUCUGCGAAUUCUGCUGUAUAUCUC [U1C U48C], which self-cleavage is on record?
Answer: 0.41

Question: With CAACAGGGGGCCACAGCAGAAGCGUUCACGUCGCAGCCCCUGUCAGAAUCUGGUGAAUCUGCGAAUUCUGCUGUAUAUCUC [U1C U48A] as the variant, how does the self-cleavage read?
Answer: 0.16

Question: Which self-cleavage does the source give for CAACAGGGGGCCACAGCAGAAGCGUUCACGUCGCAGACCCUGUCAGAUUCUGGUGAAUCUGCGAAUUCUGCUGUAUAUCUC [U1C C37A] here?
Answer: 0.16

Question: For CAACAGGGGGCCACAGCAGAAGCGUUCACGUCGCAGUCCCUGUCAGAUUCUGGUGAAUCUGCGAAUUCUGCUGUAUAUCUC [U1C C37U], which self-cleavage is on record?
Answer: 0.37

Question: For CAACAGGGGGCCACAGCAGAAGCGUUCACGUCGCAGCCCCUGUCAGAUUCUGGUGAAUCUGCGAAUUCUGUUGUAUAUCUC [U1C C71U], which self-cleavage is on record?
Answer: 0.54

Question: For CAACAGGGGGCCACAGCAGAAGCGUUCACGUCGCAGCCCCUGUCAGAUUCUAGUGAAUCUGCGAAUUCUGCUGUAUAUCUC [U1C G52A], which self-cleavage is on record?
Answer: 1

Question: With CAACAGGGGACCACAGCAGAAGCGUUCACGUCGCAGCCCCUGUCAGAUUCUGGUGAAUCUGCGAAUUCUGCUGUAUAUCUC [U1C G10A] as the variant, how does the self-cleavage read?
Answer: 0.23

Question: For CAACAGGGGCCCACAGCAGAAGCGUUCACGUCGCAGCCCCUGUCAGAUUCUGGUGAAUCUGCGAAUUCUGCUGUAUAUCUC [U1C G10C], which self-cleavage is on record?
Answer: 0.17

Question: For CAACAGGGGGCCACAGCAGAAGCGUUCACGUCGCAGCCCCUGUCAGAUUCUGGUGAAUCUGCGAAUUCUGCUGUAUAUCUG [U1C C81G], which self-cleavage is on record?
Answer: 1.21

Question: For CAACAGGGGGCCACAGCAGAAGCGUUCACGUCGCAGCACCUGUCAGAUUCUGGUGAAUCUGCGAAUUCUGCUGUAUAUCUC [U1C C38A], which self-cleavage is on record?
Answer: 0.18

Question: With CAACAGGGGGCCACAGCAGAAGCGUUCACGUCGCAGCCCCUGCCAGAUUCUGGUGAAUCUGCGAAUUCUGCUGUAUAUCUC [U1C U43C] as the variant, how does the self-cleavage read?
Answer: 0.57

Question: Which self-cleavage does the source give for CAACAGGGGGCCACAGCAGAAGCGUUCACGUCGCAGCCCCUGACAGAUUCUGGUGAAUCUGCGAAUUCUGCUGUAUAUCUC [U1C U43A] here?
Answer: 1.1

Question: With CAACAGGGGGCCACAGCAGAAGCGUUCACGACGCAGCCCCUGUCAGAUUCUGGUGAAUCUGCGAAUUCUGCUGUAUAUCUC [U1C U31A] as the variant, how does the self-cleavage read?
Answer: 0.43

Question: With CAACAGGGGGCCACAGCAGAAGCGUUCACGCCGCAGCCCCUGUCAGAUUCUGGUGAAUCUGCGAAUUCUGCUGUAUAUCUC [U1C U31C] as the variant, how does the self-cleavage read?
Answer: 0.7

Question: With CAACAGGGGGCCACAGCAGAAGCGUCCACGUCGCAGCCCCUGUCAGAUUCUGGUGAAUCUGCGAAUUCUGCUGUAUAUCUC [U1C U26C] as the variant, how does the self-cleavage read?
Answer: 0.38

Question: Which self-cleavage does the source give for CAACAGGGGGCCACAGCAGAAGCGUACACGUCGCAGCCCCUGUCAGAUUCUGGUGAAUCUGCGAAUUCUGCUGUAUAUCUC [U1C U26A] here?
Answer: 0.81

Question: With CAACAGCGGGCCACAGCAGAAGCGUUCACGUCGCAGCCCCUGUCAGAUUCUGGUGAAUCUGCGAAUUCUGCUGUAUAUCUC [U1C G7C] as the variant, how does the self-cleavage read?
Answer: 0.44

Question: Which self-cleavage does the source give for CAACAGAGGGCCACAGCAGAAGCGUUCACGUCGCAGCCCCUGUCAGAUUCUGGUGAAUCUGCGAAUUCUGCUGUAUAUCUC [U1C G7A] here?
Answer: 0.09

Question: Which self-cleavage does the source give for CAACAGGGGGCCACAGCAGAAGCGUUCACCUCGCAGCCCCUGUCAGAUUCUGGUGAAUCUGCGAAUUCUGCUGUAUAUCUC [U1C G30C] here?
Answer: 0.14

Question: For CAACAGGGCGCCACAGCAGAAGCGUUCACGUCGCAGCCCCUGUCAGAUUCUGGUGAAUCUGCGAAUUCUGCUGUAUAUCUC [U1C G9C], which self-cleavage is on record?
Answer: 0.39

Question: With CAACAGGGAGCCACAGCAGAAGCGUUCACGUCGCAGCCCCUGUCAGAUUCUGGUGAAUCUGCGAAUUCUGCUGUAUAUCUC [U1C G9A] as the variant, how does the self-cleavage read?
Answer: 0.43

Question: For CAACAGGGGGCCACAGCAGAAGCGUUCACGUCGCAGCCCUUGUCAGAUUCUGGUGAAUCUGCGAAUUCUGCUGUAUAUCUC [U1C C40U], which self-cleavage is on record?
Answer: 0.3

Question: For CAACAGGGGGCCACAGCAGAAGCGUUCACGUCGCAGCCCAUGUCAGAUUCUGGUGAAUCUGCGAAUUCUGCUGUAUAUCUC [U1C C40A], which self-cleavage is on record?
Answer: 0.18

Question: Which self-cleavage does the source give for CAACAGGGGGCCACAACAGAAGCGUUCACGUCGCAGCCCCUGUCAGAUUCUGGUGAAUCUGCGAAUUCUGCUGUAUAUCUC [U1C G16A] here?
Answer: 0.08

Question: Which self-cleavage does the source give for CAACAGGGGGCCACAGCAGAAGCGUUCACGUCGCAGCCCCUGUCAGAUUCUGGUGAAUCUGCGAAUUCUGCUUUAUAUCUC [U1C G73U] here?
Answer: 1.08

Question: Which self-cleavage does the source give for CAACAGGGGGCCACAGCAGAAGCGUUCACGUCGCAGCCCCUGUCAGAUUAUGGUGAAUCUGCGAAUUCUGCUGUAUAUCUC [U1C C50A] here?
Answer: 0.61

Question: Which self-cleavage does the source give for CAACAGGGGGCCACAGCAGAAGCGUUUACGUCGCAGCCCCUGUCAGAUUCUGGUGAAUCUGCGAAUUCUGCUGUAUAUCUC [U1C C27U] here?
Answer: 0.38

Question: With CAACAGGAGGCCACAGCAGAAGCGUUCACGUCGCAGCCCCUGUCAGAUUCUGGUGAAUCUGCGAAUUCUGCUGUAUAUCUC [U1C G8A] as the variant, how does the self-cleavage read?
Answer: 0.34

Question: With CAACAGGUGGCCACAGCAGAAGCGUUCACGUCGCAGCCCCUGUCAGAUUCUGGUGAAUCUGCGAAUUCUGCUGUAUAUCUC [U1C G8U] as the variant, how does the self-cleavage read?
Answer: 0.39

Question: With CAACAGGGGGCCACAGCAGAAGCGUUCACGUCGCAGCCCCUGUCAGAUUCGGGUGAAUCUGCGAAUUCUGCUGUAUAUCUC [U1C U51G] as the variant, how does the self-cleavage read?
Answer: 0.97
